# Results from patent US7648964B2, “Use of lacritin in promoting ocular cell survival” (University of Virginia Patent Foundation, priority 2004, dated 2010).
# How the values were obtained:
# [1] = test system: human corneal epithelial (HCE) cell line; assay: TNF-α-induced cell death in HCE cells (MTT cell viability); type: cell-based; conditions: 18 or 30 hours; FIG. 10
# Description: (§1) Lacritin-induced proliferation and calcium signaling was studied in the human corneal epithelial (HCE) cell line. HCE cells were grown at 37° C. in DMEM F/12 supplemented with 10% FBS and 50 μg/ml gentamicin. Each experiment was done in a dose- and time-dependent manner using TNF-α (5-20 ng/ml) and lacritin (1-10 nM). Cell viability was measured spectrophotometrically at an absorbance of 570 nm using the MTT assay. Caspase-8 activity was detected fluorometrically by measuring cleavage of the fluorogenic substrate IETD-pNA at an excitation wavelength of 405 nm. Lacritin-induced cell proliferation was studied by H3-thymidine incorporation and via fluorescence-based detection of PKC, PLC and cAMP. Calcium signaling was detected by confocal microscopy of Fluo-4 loaded cells.
# MUC16 = MUC16 blot of human corneal epithelial cells; type: cell-based; conditions: 10 nM
# Description: MUC16 is an important mucin on the ocular surface. Mucin contributes to the tear film, is important for wetting the ocular surface, and is reduced in Sjogren's syndrome patients. […] Cells were blotted for MUC16.
# caspase-9 = assay: Caspase-9 activity in human corneal epithelial cells treated with TNF-α; type: cell-based; conditions: lacritin polypeptides 10 nM
# Description: FIG. 13 graphically illustrates the ability of lacritin polypeptides (10 nM) to block TNFα induced caspase-9 activity in human corneal epithelial cells. The ordinate represents relative fluorescence units. White bars indicate 6 hours and diagonally-hatched bars indicate 9 hours.
# Caspase-9 activity was measured in cells treated with various combinations of TNF-α, fragments of lacritin, and the PKC inhibitor Go6976. […] The PKC-α inhibitor Go6976 and C-25 fail to block this increase of the downstream initiator caspase-9.
# NFATC1 = NFATC1 translocation in HSG cells (immunofluorescence); type: cell-based, human; conditions: HSG and corneal epithelial cells
# Description: In order to dissect the molecular pathways leading to the cell survival by lacritin, protein kinases and transcriptional factors were studied by Western blotting and immunofluorescence microscopy. […] On the other hand, there were increased activities of transcriptional factors such as nuclear factor of activated T-cells (NFAT) and NF-kappaB. In FIG. 4, translocation of PKC alpha and NFAT was detected by immunofluorescence coupled with confocal microscopic imaging. In resting HSG cells (left three images), PKC alpha distributes mainly in cytosol and membrane. Similarly, NFATc1 was also found to localize largely in cytosol. Cellular co-location of PKC alpha and NFATc1 is apparent upon merging the two immunofluorescent images, as the merged cy3 and FITC labels produce distinctive yellow color.
# Images were acquired at 2-3 s intervals using LaserSharp2000 software (Bio-Rad) and store on disc for later analysis. For translocation assays, HSG cells […] phorbol 12-myristate 13-acetate, […], then washed with phosphate-buffered saline, formaldehyde-fixed, blocked with phosphate-buffered saline containing 1% bovine serum albumin and 10% goat serum, incubated with anti-PKCα (C-20) or anti-NFATC1 (mab 7A6) (both from Santa Cruz Biotechnology Inc.; Santa Cruz, Calif.) followed by secondary Cy3-, FITC- or Alexa488-labeled antibodies and confocal microscopic visualization (Bio-Rad Radiance2100).
# [2] = test system: human salivary ductal (HSG) cells; assay: 3H-thymidine uptake mitogenesis assay; type: cell-based; conditions: 10 nM; compared to intact lacritin
# Description: (§2) For phosphotyrosine blotting and mitogenesis assays, cells in serum-containing media were seeded overnight in 24-well plates at a density of 0.5×10^5 cells/mm^2 corresponding to 20-30% confluency after cell attachment, incubated in serum-free media without supplements for 24 h (phosphotyrosine) or washed with serum-free media without supplements three times (mitogenesis) and incubated with lacritin (1-1000 nM), or positive controls EGF (1.6 nM) and 10% fetal bovine serum, or negative controls bovine serum albumin or no additive in serum-free media without supplements for the indicated times (phosphotyrosine) or 30 h (mitogenesis). For phosphotyrosine assays, cells were extracted in 1% NP40 containing sodium vanadate (2 mg/ml), DTT (5 mg/ml), protease inhibitors, 50 mM HEPES, 100 mM NaCl, and 2 mM EDTA; then separated by 10% SDS PAGE, transferred and blotted. The following antibodies (Cell Signaling Technology, Beverly Mass.) were tested: antiphosphotyrosine antibody (P-Tyr-100), anti-phospho-PKC αβII, anti-PKCα, anti-phospho-PKCδ, anti-phospho-PKC (pan), anti-p44/42 MAPK, anti-phospho-Raf, anti-phospho-SAPK/JNK, anti-phospho-p38 Map kinase, anti-phospho-Raf, anti-phospho-Akt, anti-phospho-CaMKII, anti-phospho-MARCKS, or anti-tubulin (loading control). After washing, bound antibodies were detected with peroxidase-labeled secondary antibody and ECL. With the exception of at least nine proteins in the P-Tyr-100 blot (FIG. 1), none of the effectors tested above appeared to be phospho-activated during lacritin signaling (not shown). For mitogenesis (Hussaini et al., '00), [^3H]-thymidine (2 mCi/ml) was added for the next 6 h. Incorporation was stopped with ice-cold phosphate buffered saline and followed by addition of cold and then room temperature trichloracetic acid (10%) for 10 min each, washing of cells with phosphate buffered saline, solubilization with 1 N sodium hydroxide, neutralization with 1 N hydrochloric acid, addition of scintillation fluid and then quantitation in a scintillation counter. To deplete PKCα in HSG cells, a pool of four PKCα-specific siRNAs (100 nM) were transfected via LipofectAMINE 2000 in Opti-MEMI Reduced Serum Medium (Invitrogen, Grand Island N.Y.) without serum and antibiotics according to manufacturer's instructions. Each of the four siRNAs was also individually transfected. In negative controls, cells were transfected with a pool of four lamin-specific siRNAs (Upstate LLC, Charlottesville Va.; Dharmacon Inc, Lafayette Colo.). Seventy-two hours post-transfection, mitogenesis was assessed by co-addition of 10 […] lacritin and [^3H]-thymidine (2 mCi/ml) (Amersham, Piscataway N.J.) for 24 hrs. PKCα depletion was confirmed by Western blotting.
# caspase-3 = assay: Caspase-3 activity in human corneal epithelial cells treated with TNF; type: cell-based; conditions: FIG. 11
# Description: FIG. 11 graphically illustrates the ability of lacritin and fragments of lacritin to inhibit the ability of tumor necrosis factor (TNF) to regulate caspase-3 activity in human corneal epithelial cells. Go6976 is an inhibitor of protein kinase C. The ordinate represents relative fluorescence units. White bars indicate 3 hours and diagonally-hatched bars indicate 6 hours.
# as §1
# caspase-8 = assay: Caspase-8 activity in human corneal epithelial cells treated with TNF-α; type: cell-based
# Description: FIG. 12 graphically illustrates the ability of lacritin polypeptides to block TNFα induced caspase-8 activity in human corneal epithelial cells. The ordinate represents relative fluorescence units. White bars indicate 1 hour and diagonally-hatched bars indicate 6 hours.
# as §1
# PKCα [3] = assay: PKCα translocation in HSG cells (immunofluorescence, fractionation); type: cell-based, human; conditions: 15 min after treatment
# Description: In order to dissect the molecular pathways leading to the cell survival by lacritin, protein kinases and transcriptional factors were studied by Western blotting and immunofluorescence microscopy.
# Images were acquired at 2-3 s intervals using LaserSharp2000 software (Bio-Rad) and store on disc for later analysis.
# PKCα [4] = assay: Phospho-PKCα blot of HSG cell lysates; type: cell-based, human
# Description: as §2
# We imaged PKCα in cells 15 min after treatment (FIG. 8). Nonmitogenic construct/fragment C-25 (10 nM) had no effect, leaving PKCa diffusely distributed throughout the cytoplasm. […] The phosphorylation state of PKCα influences its translocation site. Hyperphosphorylated PKCα becomes associated with the plasma membrane whereas hypophosphorylated or dephosphorylated PKCα is known to translocate to the perinuclear Golgi region. To determine if the latter is true and if so over what time course, we treated cells with lacritin, N-24 and C-25, and then blotted cell lysates for phospho-PKC ? (FIG. 8B). 10 nM lacritin promotes PKC ? dephosphorylation within 1 min of addition. This form is sustained for at least 15 min, but by 30 min has returned to baseline phosphorylation. Dephosphorylation triggered by increasing molar levels of lacritin or N-24 mirrored the proliferation response with optimal dephosphorylation at 10 nM. Non-mitogenic C-25 had no effect, whereas positive control 4β-phorbol 12-myristate 13-acetate-promoted hyperphosphorylation.
Molecule,protection from TNF-induced cell death (viability) [1],MUC16 secretion (MUC16),effect on TNF-α-induced caspase-9 activity (caspase-9),NFATC1 translocation (NFATC1),mitogenic activity of deletion constructs [2],protection from cell death by TNF (caspase-3 activity) (caspase-3),effect on TNF-α-induced caspase-8 activity (caspase-8),PKCα translocation (PKCα [3]),effect on PKCα phosphorylation (PKCα [4])
"C-25: deletion of the 25 carboxy terminal amino acids of mature lacritin (SEQ ID NO:10) (protein, homo sapiens) EDASSDSTGADPAQEAGTSKPNEEISGPAEPASPPETTTTAQETSAAAVQGTAKVTSSRQELNPLKSIVEKSILLTEQALAKAGKGMHGGVPGG",no effect on viability loss,inactive,fail to block,had no effect,inactive,do not protect,fail to block,had no effect,had no effect
"C-5: deletion of the 5 carboxy terminal amino acids of mature lacritin (SEQ ID NO:10) (protein, listed as Homo sapiens) EDASSDSTGADPAQEAGTSKPNEEISGPAEPASPPETTTTAQETSAAAVQGTAKVTSSRQELNPLKSIVEKSILLTEQALAKAGKGMHGGVPGGKQFIENGSEFAQKLLKKFSL",protect,,blocked,,active,,blocked,,
